The target in data set [1] is T1, C-terminal Twin-Strep-tagged yeast VDAC (Por1-TS) (S. cerevisiae), P04840.
T1 chain: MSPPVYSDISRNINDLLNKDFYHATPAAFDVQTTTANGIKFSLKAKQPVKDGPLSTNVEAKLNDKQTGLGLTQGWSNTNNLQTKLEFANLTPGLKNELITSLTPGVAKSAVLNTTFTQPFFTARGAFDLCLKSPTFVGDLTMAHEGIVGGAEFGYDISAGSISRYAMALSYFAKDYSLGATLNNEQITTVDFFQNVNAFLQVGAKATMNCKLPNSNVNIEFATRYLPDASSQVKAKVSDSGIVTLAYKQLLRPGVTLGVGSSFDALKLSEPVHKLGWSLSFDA
In words: cross-linking; EGS cross-linking after reconstitution into LUVs (POPC/POPG) in 10 mM MOPS/KOH pH 7.0, 100 mM KCl; 16x mole excess of EGS, 20 °C, 40 min; SDS-PAGE immunoblot (anti-His for human VDAC, anti-VDAC1/Porin for yeast porin). The conditions noted are these: remark: other sources report otherwise. In general terms: In western blotting, separated proteins are transferred to a membrane and probed.

Data set [2] concerns the molecule itself. The data set is described as above.
Data set [3] concerns the target T2, human VDAC2 (Voltage Dependent Anion Channel 2), N-terminal hexahistidine tagged (human), P45880.
T2 chain: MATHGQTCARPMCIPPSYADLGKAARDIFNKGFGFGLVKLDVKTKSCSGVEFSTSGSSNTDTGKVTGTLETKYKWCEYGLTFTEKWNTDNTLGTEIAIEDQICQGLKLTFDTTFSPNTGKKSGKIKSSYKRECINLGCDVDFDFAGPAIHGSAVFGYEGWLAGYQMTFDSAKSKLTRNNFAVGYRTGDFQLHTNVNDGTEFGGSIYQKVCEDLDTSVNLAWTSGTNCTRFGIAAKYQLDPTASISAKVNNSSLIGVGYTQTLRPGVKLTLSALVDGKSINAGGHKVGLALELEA
In words: vesicle occupancy statistics (Poisson analysis of the dithionite channel assay); different amounts of protein reconstituted into a fixed quantity of LUVs; fraction of vesicles with a channel against PPR*, one-phase exponential fit; MW 31 kDa, vesicle diameter 150 nm. Conditions: remark: other sources report otherwise.

A word on the stoichiometry N: it is the number of molecules, sites or subunits per partner or assembly.

B1: C-terminal Twin-Strep-tagged yeast VDAC (Por1-TS), P04840 1-283 (natural protein)
chain: MSPPVYSDISRNINDLLNKDFYHATPAAFDVQTTTANGIKFSLKAKQPVKDGPLSTNVEAKLNDKQTGLGLTQGWSNTNNLQTKLEFANLTPGLKNELITSLTPGVAKSAVLNTTFTQPFFTARGAFDLCLKSPTFVGDLTMAHEGIVGGAEFGYDISAGSISRYAMALSYFAKDYSLGATLNNEQITTVDFFQNVNAFLQVGAKATMNCKLPNSNVNIEFATRYLPDASSQVKAKVSDSGIVTLAYKQLLRPGVTLGVGSSFDALKLSEPVHKLGWSLSFDA
Regarding B1, in data set [1], the stoichiometry N turned out to be 2.

B2: human VDAC1 pentamutant VDAC1-5V (T60V, Y62V, E73V, T83V, S101V), N-terminal hexahistidine tagged (natural protein, UniProt P21796 1-283, looked up)
chain: MAVPPTYADLGKSARDVFTKGYGFGLIKLDLKTKSENGLEFTSSGSANTETTKVTGSLEVKVRWTEYGLTFTVKWNTDNTLGVEITVEDQLARGLKLTFDVSFSPNTGKKNAKIKTGYKREHINLGCDMDFDIAGPSIRGALVLGYEGWLAGYQMNFETAKSRVTQSNFAVGYKTDEFQLHTNVNDGTEFGGSIYQKVNKKLETAVNLAWTAGNSNTRFGIAAKYQIDPDACFSAKVNNSSLIGLGYTQTLKPGIKLTLSALLDGKNVNAGGHKLGLGLEFQA
notes: human VDAC1 with five substitutions to valine; pCold vector
Regarding B2, the binding result in data set [2] is “binds”.

B3: human VDAC2 (Voltage Dependent Anion Channel 2), N-terminal hexahistidine tagged, P45880 1-294 (natural protein)
chain: MATHGQTCARPMCIPPSYADLGKAARDIFNKGFGFGLVKLDVKTKSCSGVEFSTSGSSNTDTGKVTGTLETKYKWCEYGLTFTEKWNTDNTLGTEIAIEDQICQGLKLTFDTTFSPNTGKKSGKIKSSYKRECINLGCDVDFDFAGPAIHGSAVFGYEGWLAGYQMTFDSAKSKLTRNNFAVGYRTGDFQLHTNVNDGTEFGGSIYQKVCEDLDTSVNLAWTSGTNCTRFGIAAKYQLDPTASISAKVNNSSLIGVGYTQTLRPGVKLTLSALVDGKSINAGGHKVGLALELEA
As to B3, in data set [3], the stoichiometry N is 10.
